Reference: US20240002501A1
Read-outs that look alike come from different tables or passages of the source.

Columns and labels:
[1] = biological target: L1-CAM-Fc (UniProt P32004); test: SPR (Biacore T100), L1-CAM-Fc immobilised on CM5 chip
[2] = biological target: L1-CAM-Fc (UniProt P32004); test: as above; remark: listed apart in the source
[3] = biological target: L1-CAM-His; test: SPR (Biacore T100), L1-CAM-His immobilised on CM5 chip
Chain of L1-CAM-His (P32004 20-1120): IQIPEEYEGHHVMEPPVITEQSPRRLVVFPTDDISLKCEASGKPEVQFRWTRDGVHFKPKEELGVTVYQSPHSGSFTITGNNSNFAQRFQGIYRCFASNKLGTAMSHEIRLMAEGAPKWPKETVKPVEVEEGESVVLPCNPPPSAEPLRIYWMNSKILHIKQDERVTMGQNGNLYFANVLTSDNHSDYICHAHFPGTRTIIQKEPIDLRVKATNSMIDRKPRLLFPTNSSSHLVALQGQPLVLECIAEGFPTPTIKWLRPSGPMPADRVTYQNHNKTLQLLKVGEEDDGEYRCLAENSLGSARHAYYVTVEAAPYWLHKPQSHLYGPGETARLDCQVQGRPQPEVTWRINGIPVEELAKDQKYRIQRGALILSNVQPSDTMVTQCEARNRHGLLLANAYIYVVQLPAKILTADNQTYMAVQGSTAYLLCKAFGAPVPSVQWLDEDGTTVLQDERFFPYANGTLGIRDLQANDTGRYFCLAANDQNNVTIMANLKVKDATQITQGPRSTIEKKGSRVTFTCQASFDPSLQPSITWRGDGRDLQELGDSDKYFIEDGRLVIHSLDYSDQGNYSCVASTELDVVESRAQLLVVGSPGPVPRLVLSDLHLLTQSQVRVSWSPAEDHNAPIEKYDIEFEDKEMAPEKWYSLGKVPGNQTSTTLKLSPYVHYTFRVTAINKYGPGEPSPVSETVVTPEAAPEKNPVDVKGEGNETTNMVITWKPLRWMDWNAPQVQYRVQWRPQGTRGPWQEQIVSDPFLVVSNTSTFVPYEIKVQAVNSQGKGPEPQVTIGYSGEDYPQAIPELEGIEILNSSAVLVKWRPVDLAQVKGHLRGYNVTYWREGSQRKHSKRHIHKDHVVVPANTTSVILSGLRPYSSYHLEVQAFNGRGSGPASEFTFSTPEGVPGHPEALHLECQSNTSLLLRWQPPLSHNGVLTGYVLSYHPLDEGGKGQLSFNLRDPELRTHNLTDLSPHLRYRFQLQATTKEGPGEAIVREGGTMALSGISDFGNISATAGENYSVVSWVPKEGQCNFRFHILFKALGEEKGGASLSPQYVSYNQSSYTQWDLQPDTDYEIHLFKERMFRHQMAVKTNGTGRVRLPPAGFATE

Chain of L1-CAM-Fc (P32004 20-1120 limits assumed): as the sequence (P32004 20-1120) above

Kd [1]: 0.618 nM
Kd [2]: 1.42 nM
Kd [3]: 1.3 nM
B1: chCE7 (antibody, from another filing, V domains shown)
VH: QVQLQQPGAELVKPGASVKLSCKASGYTFTGYWMHWVKQRPGHGLEWIGEINPSNGRTNYNERFKSKATLTVDKSSTTAFMQLSGLTSEDSAVYFCARDYYGTSYNFDYWGQGTTLTVSS
VL: DIQMTQSSSSFSVSLGDRVTITCKANEDINNRLAWYQQTPGNSPRLLISGATNLVTGVPSRFSGSGSGKDYTLTITSLQAEDFATYYCQQYWSTPFTFGSGTELEIK
